The values below come from US20170158755A1 (PROTHENA BIOSCIENCES, published 2017).

One assay deals with recombinant laminin 411 (human, UniProt P07942 22-1786; P11047 34-1609, limits assumed). Put plainly: cell-based or functional assay.
The target in assay [1] is T1, LGde2, human LAMA4 G domain with LG2 deleted, displayed on 293 cells (human, UniProt Q16363 830-1821, limits assumed).
T1 construct: pDisplay construct on 293 cells; vector tags and anchor not written here; also called LGde2 (LG13)
T1 sequence: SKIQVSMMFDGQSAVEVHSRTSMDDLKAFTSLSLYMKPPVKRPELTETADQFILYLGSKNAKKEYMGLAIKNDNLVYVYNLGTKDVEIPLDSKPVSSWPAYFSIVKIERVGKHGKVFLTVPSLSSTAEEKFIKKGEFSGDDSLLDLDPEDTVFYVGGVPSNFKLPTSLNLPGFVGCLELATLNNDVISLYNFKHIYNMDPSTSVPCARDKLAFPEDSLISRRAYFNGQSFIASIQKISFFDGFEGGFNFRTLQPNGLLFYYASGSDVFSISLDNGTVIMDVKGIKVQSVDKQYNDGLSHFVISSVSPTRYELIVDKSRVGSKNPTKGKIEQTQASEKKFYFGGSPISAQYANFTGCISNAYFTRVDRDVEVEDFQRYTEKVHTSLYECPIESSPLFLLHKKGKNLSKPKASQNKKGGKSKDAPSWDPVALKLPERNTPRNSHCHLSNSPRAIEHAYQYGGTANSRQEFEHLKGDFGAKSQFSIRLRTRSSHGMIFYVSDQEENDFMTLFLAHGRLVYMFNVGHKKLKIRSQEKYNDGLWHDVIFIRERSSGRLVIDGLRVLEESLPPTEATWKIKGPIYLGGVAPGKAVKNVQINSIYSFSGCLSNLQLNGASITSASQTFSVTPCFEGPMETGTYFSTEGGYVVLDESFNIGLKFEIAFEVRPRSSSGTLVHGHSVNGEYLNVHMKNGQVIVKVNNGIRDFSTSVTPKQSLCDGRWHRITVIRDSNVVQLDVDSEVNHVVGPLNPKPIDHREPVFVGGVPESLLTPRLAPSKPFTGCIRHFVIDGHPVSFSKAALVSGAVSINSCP
Put plainly: flow cytometry, 650-labeled MCAM-Fc on 293 cells displaying the variant. The text has this: (§1) LGde1 has a full-length G domain (i.e., LG1-5) with LG1 deleted, LGde2 has a full-length G domain with LG2 deleted, and LGde3 has a full-length G domain with LG3 deleted. Recombinant MCAM-Fc protein was able to specifically bind 293 cells expressing LAMA4 variants LG1-5, LG1-3, and LGde 1 (LG23), but not 293 cells expressing LAMA 4 variants LG4-5, LGde2 (LG13), or LGde3 (LG12).

For assay [2], the target named is T2, LGde1, human LAMA4 G domain with LG1 deleted, displayed on 293 cells (human, UniProt Q16363 1036-1821).
T2 construct: pDisplay construct on 293 cells; vector tags and anchor not written here; also called LGde 1 (LG23)
T2 sequence: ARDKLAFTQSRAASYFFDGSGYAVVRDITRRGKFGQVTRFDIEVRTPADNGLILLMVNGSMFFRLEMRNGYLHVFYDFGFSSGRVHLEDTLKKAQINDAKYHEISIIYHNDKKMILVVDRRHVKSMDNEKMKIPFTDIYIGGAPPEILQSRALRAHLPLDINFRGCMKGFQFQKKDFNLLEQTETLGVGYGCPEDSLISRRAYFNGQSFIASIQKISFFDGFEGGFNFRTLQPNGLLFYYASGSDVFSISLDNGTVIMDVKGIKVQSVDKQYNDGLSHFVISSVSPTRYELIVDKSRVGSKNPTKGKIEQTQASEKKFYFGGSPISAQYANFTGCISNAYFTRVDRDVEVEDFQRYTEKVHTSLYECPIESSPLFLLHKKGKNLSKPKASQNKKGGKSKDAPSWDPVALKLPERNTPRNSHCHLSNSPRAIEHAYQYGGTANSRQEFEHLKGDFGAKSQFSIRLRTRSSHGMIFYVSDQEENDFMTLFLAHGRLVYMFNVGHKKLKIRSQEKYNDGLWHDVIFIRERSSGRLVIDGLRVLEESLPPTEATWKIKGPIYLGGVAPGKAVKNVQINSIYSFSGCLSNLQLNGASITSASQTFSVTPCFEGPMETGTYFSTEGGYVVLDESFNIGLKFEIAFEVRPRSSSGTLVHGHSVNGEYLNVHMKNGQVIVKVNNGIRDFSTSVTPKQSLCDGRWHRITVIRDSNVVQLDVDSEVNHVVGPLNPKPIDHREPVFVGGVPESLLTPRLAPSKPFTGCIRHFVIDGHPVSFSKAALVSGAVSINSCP
Described as above.
Source text: as §1

Chain of recombinant laminin 411 (chain, as listed by the source limits assumed, chain 1 of 3): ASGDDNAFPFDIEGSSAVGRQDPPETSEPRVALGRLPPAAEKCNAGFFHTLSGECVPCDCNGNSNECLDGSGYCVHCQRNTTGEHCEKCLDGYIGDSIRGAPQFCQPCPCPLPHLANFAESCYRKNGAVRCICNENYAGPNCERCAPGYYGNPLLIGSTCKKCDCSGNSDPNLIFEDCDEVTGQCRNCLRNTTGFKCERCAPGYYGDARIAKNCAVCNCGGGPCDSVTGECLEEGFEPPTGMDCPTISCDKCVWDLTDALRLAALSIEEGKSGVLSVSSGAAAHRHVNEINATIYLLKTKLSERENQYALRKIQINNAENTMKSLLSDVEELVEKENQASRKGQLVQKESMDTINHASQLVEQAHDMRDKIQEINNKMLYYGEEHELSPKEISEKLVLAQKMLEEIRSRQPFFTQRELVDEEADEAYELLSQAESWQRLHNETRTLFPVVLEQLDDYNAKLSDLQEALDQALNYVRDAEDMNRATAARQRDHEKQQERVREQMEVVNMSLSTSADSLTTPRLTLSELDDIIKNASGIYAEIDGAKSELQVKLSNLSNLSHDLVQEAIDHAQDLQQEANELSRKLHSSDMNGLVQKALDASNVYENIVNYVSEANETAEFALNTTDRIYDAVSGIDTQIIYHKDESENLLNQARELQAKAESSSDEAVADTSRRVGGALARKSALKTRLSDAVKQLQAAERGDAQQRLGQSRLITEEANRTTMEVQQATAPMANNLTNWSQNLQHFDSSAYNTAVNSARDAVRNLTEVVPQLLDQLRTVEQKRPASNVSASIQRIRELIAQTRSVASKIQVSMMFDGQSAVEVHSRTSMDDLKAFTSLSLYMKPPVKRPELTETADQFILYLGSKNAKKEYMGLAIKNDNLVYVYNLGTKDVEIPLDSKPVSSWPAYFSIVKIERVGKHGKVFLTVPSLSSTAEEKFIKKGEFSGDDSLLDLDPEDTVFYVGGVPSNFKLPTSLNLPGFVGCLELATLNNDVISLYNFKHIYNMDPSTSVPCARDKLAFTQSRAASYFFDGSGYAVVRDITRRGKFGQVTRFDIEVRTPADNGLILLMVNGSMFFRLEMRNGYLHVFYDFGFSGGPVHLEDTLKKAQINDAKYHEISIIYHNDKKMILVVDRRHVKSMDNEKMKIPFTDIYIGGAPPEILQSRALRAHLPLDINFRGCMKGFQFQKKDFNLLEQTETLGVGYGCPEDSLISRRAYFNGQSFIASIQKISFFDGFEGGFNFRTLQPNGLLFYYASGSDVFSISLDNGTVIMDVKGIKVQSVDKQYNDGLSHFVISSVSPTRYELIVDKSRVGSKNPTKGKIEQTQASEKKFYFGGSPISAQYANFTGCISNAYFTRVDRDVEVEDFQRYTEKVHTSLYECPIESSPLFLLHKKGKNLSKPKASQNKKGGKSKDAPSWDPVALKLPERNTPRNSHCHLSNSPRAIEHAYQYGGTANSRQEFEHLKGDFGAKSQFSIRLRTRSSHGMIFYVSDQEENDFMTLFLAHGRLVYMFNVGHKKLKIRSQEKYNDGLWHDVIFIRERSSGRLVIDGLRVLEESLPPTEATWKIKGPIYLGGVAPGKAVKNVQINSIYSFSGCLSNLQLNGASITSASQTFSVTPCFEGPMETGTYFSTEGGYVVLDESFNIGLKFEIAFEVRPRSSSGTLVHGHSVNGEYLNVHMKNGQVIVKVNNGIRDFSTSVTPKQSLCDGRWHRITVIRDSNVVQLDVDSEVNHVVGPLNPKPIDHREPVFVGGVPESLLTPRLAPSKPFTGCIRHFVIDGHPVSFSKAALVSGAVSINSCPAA
Chain of recombinant laminin 411 (P07942 22-1786 limits assumed, chain 2 of 3): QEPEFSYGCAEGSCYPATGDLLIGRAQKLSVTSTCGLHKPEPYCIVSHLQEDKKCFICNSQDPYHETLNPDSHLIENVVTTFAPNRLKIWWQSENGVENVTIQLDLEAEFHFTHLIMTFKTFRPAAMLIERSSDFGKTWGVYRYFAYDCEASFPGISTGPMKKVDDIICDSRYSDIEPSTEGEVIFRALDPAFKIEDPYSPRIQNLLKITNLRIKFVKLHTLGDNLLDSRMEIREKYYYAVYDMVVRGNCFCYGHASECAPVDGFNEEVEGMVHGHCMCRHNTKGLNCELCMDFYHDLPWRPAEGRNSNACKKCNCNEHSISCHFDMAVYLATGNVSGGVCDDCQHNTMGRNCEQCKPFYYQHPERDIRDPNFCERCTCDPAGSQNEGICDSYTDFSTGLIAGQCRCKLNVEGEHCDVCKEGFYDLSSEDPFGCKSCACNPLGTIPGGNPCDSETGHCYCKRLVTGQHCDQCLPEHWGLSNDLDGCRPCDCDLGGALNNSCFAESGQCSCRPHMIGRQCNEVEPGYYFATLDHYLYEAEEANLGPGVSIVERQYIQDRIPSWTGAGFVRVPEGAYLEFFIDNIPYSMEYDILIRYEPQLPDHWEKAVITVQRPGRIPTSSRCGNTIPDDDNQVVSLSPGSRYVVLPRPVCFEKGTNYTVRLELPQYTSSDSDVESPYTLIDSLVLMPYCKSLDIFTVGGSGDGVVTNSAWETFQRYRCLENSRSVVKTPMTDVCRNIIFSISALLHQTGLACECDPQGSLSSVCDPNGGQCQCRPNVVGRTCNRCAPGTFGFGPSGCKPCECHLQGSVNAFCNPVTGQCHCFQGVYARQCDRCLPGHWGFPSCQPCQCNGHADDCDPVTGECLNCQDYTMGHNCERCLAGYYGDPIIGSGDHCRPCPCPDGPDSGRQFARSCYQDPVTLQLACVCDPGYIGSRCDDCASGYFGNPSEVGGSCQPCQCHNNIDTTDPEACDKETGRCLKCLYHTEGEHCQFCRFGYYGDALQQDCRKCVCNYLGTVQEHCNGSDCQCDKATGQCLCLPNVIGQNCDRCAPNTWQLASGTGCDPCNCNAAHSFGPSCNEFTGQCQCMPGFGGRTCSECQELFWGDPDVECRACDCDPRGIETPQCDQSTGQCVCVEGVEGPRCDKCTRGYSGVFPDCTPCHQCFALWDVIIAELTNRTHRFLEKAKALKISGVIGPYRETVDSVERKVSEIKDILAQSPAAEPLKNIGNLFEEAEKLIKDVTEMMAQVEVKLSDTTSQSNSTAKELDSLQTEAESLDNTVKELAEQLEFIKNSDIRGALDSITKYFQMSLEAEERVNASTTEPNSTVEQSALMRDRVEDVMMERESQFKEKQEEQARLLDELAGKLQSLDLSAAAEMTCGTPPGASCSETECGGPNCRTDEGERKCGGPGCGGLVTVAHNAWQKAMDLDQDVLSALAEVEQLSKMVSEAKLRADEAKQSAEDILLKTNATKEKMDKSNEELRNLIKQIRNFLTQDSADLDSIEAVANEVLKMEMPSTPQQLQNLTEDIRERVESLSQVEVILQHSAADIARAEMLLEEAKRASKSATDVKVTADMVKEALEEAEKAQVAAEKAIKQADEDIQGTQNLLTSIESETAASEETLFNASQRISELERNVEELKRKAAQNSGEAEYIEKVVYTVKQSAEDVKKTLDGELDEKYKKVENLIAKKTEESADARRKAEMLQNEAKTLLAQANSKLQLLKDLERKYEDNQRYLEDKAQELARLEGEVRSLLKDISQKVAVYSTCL
Chain of recombinant laminin 411 (P11047 34-1609 limits assumed, chain 3 of 3): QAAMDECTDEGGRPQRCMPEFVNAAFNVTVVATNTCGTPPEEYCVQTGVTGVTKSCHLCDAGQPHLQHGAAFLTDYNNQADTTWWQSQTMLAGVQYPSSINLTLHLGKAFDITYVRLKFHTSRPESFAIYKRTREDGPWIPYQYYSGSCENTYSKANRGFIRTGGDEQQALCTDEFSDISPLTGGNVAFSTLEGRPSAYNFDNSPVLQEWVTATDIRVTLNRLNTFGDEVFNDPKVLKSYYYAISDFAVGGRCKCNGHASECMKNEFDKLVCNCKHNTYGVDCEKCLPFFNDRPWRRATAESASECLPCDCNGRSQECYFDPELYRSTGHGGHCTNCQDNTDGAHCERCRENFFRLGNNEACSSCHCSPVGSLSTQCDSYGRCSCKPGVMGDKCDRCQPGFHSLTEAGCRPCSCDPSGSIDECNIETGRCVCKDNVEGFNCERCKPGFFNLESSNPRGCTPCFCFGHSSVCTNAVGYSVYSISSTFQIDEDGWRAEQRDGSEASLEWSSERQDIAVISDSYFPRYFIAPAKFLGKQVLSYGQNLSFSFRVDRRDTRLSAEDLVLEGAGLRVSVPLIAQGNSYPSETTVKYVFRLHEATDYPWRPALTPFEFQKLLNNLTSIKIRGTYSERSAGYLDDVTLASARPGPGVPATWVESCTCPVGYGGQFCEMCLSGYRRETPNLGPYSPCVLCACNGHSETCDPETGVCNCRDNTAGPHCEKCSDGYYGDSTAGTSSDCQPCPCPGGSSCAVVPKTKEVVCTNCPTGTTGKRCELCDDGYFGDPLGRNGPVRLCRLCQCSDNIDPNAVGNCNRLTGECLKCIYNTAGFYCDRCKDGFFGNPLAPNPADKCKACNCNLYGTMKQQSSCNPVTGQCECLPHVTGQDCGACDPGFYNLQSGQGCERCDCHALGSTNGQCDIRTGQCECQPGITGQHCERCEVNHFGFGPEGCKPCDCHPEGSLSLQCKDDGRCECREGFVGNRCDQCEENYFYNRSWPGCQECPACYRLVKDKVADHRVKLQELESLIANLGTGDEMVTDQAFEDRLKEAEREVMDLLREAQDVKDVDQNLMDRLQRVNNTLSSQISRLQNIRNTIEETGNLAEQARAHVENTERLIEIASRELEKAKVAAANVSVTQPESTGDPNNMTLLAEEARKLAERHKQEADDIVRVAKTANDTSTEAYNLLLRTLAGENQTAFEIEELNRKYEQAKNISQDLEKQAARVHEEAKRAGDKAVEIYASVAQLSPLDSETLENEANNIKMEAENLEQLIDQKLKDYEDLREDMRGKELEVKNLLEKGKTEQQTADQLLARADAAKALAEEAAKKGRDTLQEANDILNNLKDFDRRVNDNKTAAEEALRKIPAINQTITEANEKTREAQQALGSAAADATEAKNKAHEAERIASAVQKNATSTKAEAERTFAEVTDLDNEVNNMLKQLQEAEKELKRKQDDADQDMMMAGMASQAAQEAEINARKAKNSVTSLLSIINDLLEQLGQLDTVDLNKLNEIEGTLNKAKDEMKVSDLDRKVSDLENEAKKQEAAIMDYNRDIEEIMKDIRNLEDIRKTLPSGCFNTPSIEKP

B1: mouse monoclonal antibody 19C12 (antibody, V domains shown)
VH: QVQLQQSGAELVKPGASVKISCKASGYAFSTYWMNWVKQRPGEGLEWIGQIYPGDGDTNYNGKFKGKATLTADKSSSTAYMQLSSLTSEDSAVYFCARSDGYYDYWGQGTTLTVSS
VL: NIVLTQSPASLAVSLGQRATISCRASESVDSYGTSFMHWYQQKPGQPPKLLICLASSLESGVPARFSGSGSRTDFTLTIDPVEADDAATYYCQQNNEDPPTFGAGTKLELKR
notes: Mouse hybridoma antibody; Mouse IgG2b was used as its isotype control; also called m19C12
As to B1, the “laminin-411-induced pAkt activation (pAkt/Akt ratio by immunoblot) in WM266.4 cells, 20 ug/ml antibody” value with recombinant laminin 411 was ~50 % inhibition.

B2: mouse MCAM-Fc fusion protein (Fc fusion, UniProt Q8R2Y2 24-563, looked up)
chain: VPGEEKQPVPTPDLVEAEVGSTALLKCGPSRASGNFSQVDWFLIHKERQILIFRVHQGKGQREPGEYEHRLSLQDSVATLALSHVTPHDERMFLCKSKRPRLQDHYVELQVFKAPEEPTIQANVVGIHVDRQELREVATCVGRNGYPIPQVLWYKNSLPLQEEENRVHIQSSQIVESSGLYTLKSVLSARLVKEDKDAQFYCELSYRLPSGNHMKESKEVTVPVFYPAEKVWVEVEPVGLLKEGDHVTIRCLTDGNPQPHFTINKKDPSTGEMEEESTDENGLLSLEPAEKHHSGLYQCQSLDLETTITLSSDPLELLVNYVSDVQVNPTAPEVQEGESLTLTCEAESNQDLEFEWLRDKTGQLLGKGPVLQLNNVRREAGGRYLCMASVPRVPGLNRTQLVSVGIFGSPWMALKERKVWVQENAVLNLSCEASGHPQPTISWNVNGSATEWNPDPQTVVSTLNVLVTPELLETGAECTASNSLGSNTTTIVLKLVTLTTLIPDSSQTTGLSTLTVSPHTRANSTSTEKKLPQPESKGVV
notes: extracellular domain; Made in house; also called mMCAM-Fc; 650-conjugated mouse MCAM-Fc; not shown: human IgG1 (Fc part of the fusion)
B2: the figures for the binding result in assay [1] and in assay [2] were “no binding” and “binds”, respectively.
